Measurements from US20240076371A1, “COMPOSITIONS AND METHODS FOR TREATING OSTEOARTHRITIS, RHEUMATOID ARTHRITIS, AND JOINT AND TENDON DISORDERS” (BOARD OF REGENTS, THE UNIVERSITY OF TEXAS SYSTEM, priority 2021, published 2024).

Target: T1, Cx43 hemichannel (Mus musculus, UniProt P23242)
T1 construct: from tissue; host or cells: synovium of male C57BL/6 mice after DMM surgery (in vivo)
Assay: In vivo Evans Blue dye uptake assay in synovium after DMM
Conditions: 25 mg/kg at 30 mins after DMM surgery, Evans Blue 200 mg/kg at two weeks after the treatment; DMM increased opening by 2 folds
Experimental: In vivo dye uptake assay. Evans Blue dye (Mw: 900 Da) (200 mg/kg) and FITC-dextran (Mw: 10,000 Da) (200 mg/kg) were co-injected […] post-antibody treatment via the tail vein. One-hour post administration of the dye, mice were anesthetized, and cardiac perfusion was performed with cold PBS and 4% paraformaldehyde. Both hindlimbs were isolated and prepared for frozen sections. Sections were stained with DAPI and photographed using the Keyence microscope (BZ-X710, Keyence, Osaka, Japan). The intensity of dye uptake was quantified by NIH Image J software.
To determine the Cx43 hemichannel activity in vivo, Evans Blue dye uptake assay was performed. Mice were treated with saline or Cx43 antibody (M1 antibody) (25 mg/kg) at 30 mins after DMM surgery. Tail vein injection of Evans Blue dye (200 mg/kg) was performed at two weeks after the treatment, and Evans Blue dye uptake intensity was quantified in synovium region. […] Frozen sections prepared from saline-treated mice were immuno-labeled with the M1 antibody, further validated the role of the M1 antibody in blocking the osteoarthritis induced hemichannel opening in synoviocytes that express Cx43 (FIG. 11C).

T1 sequence (P23242 whole entry): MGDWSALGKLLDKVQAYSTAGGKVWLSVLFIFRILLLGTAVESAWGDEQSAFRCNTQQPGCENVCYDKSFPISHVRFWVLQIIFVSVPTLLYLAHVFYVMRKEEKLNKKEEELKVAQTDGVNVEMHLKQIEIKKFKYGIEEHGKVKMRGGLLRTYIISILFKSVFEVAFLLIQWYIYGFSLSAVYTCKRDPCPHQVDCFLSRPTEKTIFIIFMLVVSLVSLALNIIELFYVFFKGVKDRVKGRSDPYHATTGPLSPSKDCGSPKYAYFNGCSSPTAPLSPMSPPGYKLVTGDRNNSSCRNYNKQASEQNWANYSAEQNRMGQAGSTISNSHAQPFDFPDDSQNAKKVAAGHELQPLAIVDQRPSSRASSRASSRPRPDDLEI

B1: M1 antibody: antibody with variable heavy chain SEQ ID NO: 58 and variable light chain SEQ ID NO: 60; inhibits or blocks opening of Cx43 hemichannel (antibody, V domains shown)
VH: EVQLQQPGAELVKPGASVKLSCKASGYTFTSYYMYWVKQRPGQGLEWIGGINPSNGGTNFNEKFKNKATLTVDKSSSTAYMQLSSLTSEDSAVYYCTREGNPYYTMNYWGQGTSVTVSS
VL: DIVMTQSPSSLSVSAGEKVTMSCKSSQSLLNSGNQKTYLAWYQQKPGQPPKLLIYGASTRESGVPDRFTGSGSGTDFTLTISSVQAEDLAVYYCQNDHSYPFTFGSGTKLEIK
DMM-increased hemichannel opening (Evans Blue dye uptake intensity in synovium region): blocked
